Measured values as given in patent publication US20240352121A1 (NEXTCURE, published 2024).

Key:
[1] = molecular target: human LAIR-1 fused to the zeta chain of CD3, on UT-140 reporter cells (human, UniProt P20963 31-164); test: cell-based or functional assay
[2] = molecular target: T1, LAIR-1 (human; form used for the KD not stated) (human, UniProt Q6GTX8 22-165, limits assumed); test: method not stated (in vitro activity listed in the legend of FIG. 20)
T1 construct: also called Leukocyte Associated Immunoglobulin Like Receptor 1
T1 chain: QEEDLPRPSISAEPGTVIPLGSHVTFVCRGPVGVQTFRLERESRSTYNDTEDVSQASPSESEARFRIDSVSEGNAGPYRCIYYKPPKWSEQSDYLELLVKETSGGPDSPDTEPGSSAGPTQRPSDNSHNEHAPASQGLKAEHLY

[3] = molecular target: T2, human LAIR-1 expressed on cells (293T cells overexpressing human LAIR-1; leukemic cells) (human, UniProt Q6GTX8 22-287); test: cell binding, human LAIR-1 cells (FIG. 20A)
T2 construct: also called human LAIR-1 cells
T2 chain: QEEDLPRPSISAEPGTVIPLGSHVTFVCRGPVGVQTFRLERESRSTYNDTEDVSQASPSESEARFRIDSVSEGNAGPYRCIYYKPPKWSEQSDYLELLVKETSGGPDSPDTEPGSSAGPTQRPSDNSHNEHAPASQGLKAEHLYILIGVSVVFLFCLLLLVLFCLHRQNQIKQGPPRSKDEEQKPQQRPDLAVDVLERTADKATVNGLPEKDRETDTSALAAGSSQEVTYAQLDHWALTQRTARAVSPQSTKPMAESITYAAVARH

B1: h11B3 LAIR-1 mAb, Anti-LAIR-1 Variant 6 (h11B3 VL-2 / h11B3 VH-3) (antibody, V domains shown)
VH: EVQLVESGGGLVQPGGSLKLSCAASGFTFNTNAMYWVRQAPGKGLEWVGRIRSKSSNYATYYAASVKGRFTISRDDSKNTLYLQMNSLKTEDTAVYYCVRGGSGFFAYWGQGTLVTVSS
VL: DIQMTQSPSSLSASLGDRVTITCKASEDIYIRLAWYQQKPGKAPRLLISTATSLETGVPSRFSGSGSGTDYTFTISSLQPEDIATYYCQQYWSTPYTFGGGTRLEIK
notes: In the MV4-11 staining the mAb was AF647-conjugated; also called h11B3v6; humanized 11B3 LAIR-1 mAbs
blocks signaling IC50 [1]: 0.25 nM
Kd [2]: 2.1 nM
EC50 [3]: 0.15 nM
